# Target: VP11-His (pET-28b/VP11-His) (White spot syndrome virus (WSSV-TW strain))
# Assay: cross-linking; VP11-His from clear E. coli lysate held on Ni-NTA beads, washed, 0.05% glutaraldehyde in PBS passed through the column, eluted with 250 mM imidazole, SDS-PAGE and anti-His immunoblot
substance,measurement,value
VP11-His (pET-28b/VP11-His) (natural protein),stoichiometry N,2

# — PMC3897518
